Measured values from US20240309070A1 (ADMARE THERAPEUTICS SOCIETY, published 2024).

Legend:
[1] = biological target: T1, Western Reserve B5 on cells infected with VVddeGFP Western Reserve virus (Vaccinia virus, Western Reserve strain, UniProt Q01227 18-317); experiment: flow cytometry, HT29 cells infected with WR VV
T1 construct: also called VV B5; WR

[2] = biological target: T2, VV B5 monomer protein (Wyeth Vaccinia strain B5 with C-terminal AVI tag and HIS6 tag) (Vaccinia virus, Wyeth strain, UniProt O57254 18-279); experiment: BLI (Octet), antibody on AHC sensor, B5 monomer analyte
T2 construct: also called B5 protein; VV B5 protein

[3] = biological target: T1, Western Reserve B5 on cells infected …; experiment: flow cytometry, SKOV3 cells infected with WR VV
[4] = biological target: T3, Copenhagen B5 on cells infected with VVCopenhagen (YFP) virus (Vaccinia virus, Copenhagen strain, UniProt P21115 18-317); experiment: flow cytometry, HT29 cells infected with Copenhagen VV
T3 construct: also called VV B5

[5] = biological target: T2, VV B5 monomer protein (Wyeth Vaccinia …); experiment: ELISA, B5 monomer coated

Binder | EC50 [1] [nM] | Kd [2] [nM] | koff [2] [s⁻¹] | kon [2] [M⁻¹ s⁻¹] | EC50 [3] [nM] | EC50 [4] [nM] | EC50 [5] [nM]
A048-H3L4 (antibody, V domains shown) VH: EVQLLESGGGLVQPGGSLRLSCAASGFSFSSSYYMCWVRQAPGKGLEWIACIYTSSGSAYYADSVKGRFTISRDNSKNTLYLQMNSLRAEDTAVYYCVRNAVGSSYYLYLWGQGTLVTVSS VL: AQVLTQSPSSLSASVGDRVTITCQASQSVAGNNYLSWYQQKPGKVPKLLIYSVSTLASGVPSRFSGSGSGTDFTLTISSLQPEDVATYYCQGYYNDGIWAFGQGTKVEIK | 3.78 | 8.57 | 0.000722 | 84100 | 1.28 | 1.96 | 0.106
A048-H3L3 (antibody, V domains shown) VH: EVQLLESGGGLVQPGGSLRLSCAASGFSFSSSYYMCWVRQAPGKGLEWIACIYTSSGSAYYADSVKGRFTISRDNSKNTLYLQMNSLRAEDTAVYYCVRNAVGSSYYLYLWGQGTLVTVSS VL: DIQMTQSPSSLSASVGDRVTITCQASQSVAGNNYLSWYQQKPGKVPKLLIYSVSTLASGVPSRFSGSGSGTDFTLTISSLQPEDVATYYCQGYYNDGIWAFGQGTKVEIK | 1.81 | 7.71 | 0.000733 | 94900 | 0.83 | 1.03 | 0.0979
A048-H2L4 (antibody, V domains shown) VH: EVQLLESGGGLVQPGGSLRLSCAASGFSFSSSYYMCWVRQAPGKGLEWIACIYTSSGSAYYANWAKGRFTISRTSSTTVTLQMNSLRAEDTAVYYCVRNAVGSSYYLYLWGQGTLVTVSS VL: AQVLTQSPSSLSASVGDRVTITCQASQSVAGNNYLSWYQQKPGKVPKLLIYSVSTLASGVPSRFSGSGSGTDFTLTISSLQPEDVATYYCQGYYNDGIWAFGQGTKVEIK | 1.68 | 6.23 | 0.000512 | 81600 | 0.69 | 2.85 | 0.0844
A048-H2L2 (antibody, V domains shown) VH: EVQLLESGGGLVQPGGSLRLSCAASGFSFSSSYYMCWVRQAPGKGLEWIACIYTSSGSAYYANWAKGRFTISRTSSTTVTLQMNSLRAEDTAVYYCVRNAVGSSYYLYLWGQGTLVTVSS VL: AQVLTQSPSTLSASVGDRVTITCQASQSVAGNNYLSWYQQKPGKAPKLLIYSVSTLASGVPSRFSGSGSGTEFTLTISSLQPDDFATYYCQGYYNDGIWAFGQGTKVEIK | 1.71 | 7.91 | 0.000698 | 88100 | 0.8 | 1.28 | 0.0914
A048-H1L2 (antibody, V domains shown) VH: EVQLLESGGGLVQPGGSLRLSCAASGFSFSSSYYMCWVRQAPGKGLEWIACIYTSSGSAYYANWAKGRFTISRDNSKNTLYLQMNSLRAEDTAVYYCVRNAVGSSYYLYLWGQGTLVTVSS VL: AQVLTQSPSTLSASVGDRVTITCQASQSVAGNNYLSWYQQKPGKAPKLLIYSVSTLASGVPSRFSGSGSGTEFTLTISSLQPDDFATYYCQGYYNDGIWAFGQGTKVEIK | 2.2 | 9.71 | 0.000764 | 78600 | 0.76 | 0.77 | 0.0717
A048-H2L3 (antibody, V domains shown) VH: EVQLLESGGGLVQPGGSLRLSCAASGFSFSSSYYMCWVRQAPGKGLEWIACIYTSSGSAYYANWAKGRFTISRTSSTTVTLQMNSLRAEDTAVYYCVRNAVGSSYYLYLWGQGTLVTVSS VL: DIQMTQSPSSLSASVGDRVTITCQASQSVAGNNYLSWYQQKPGKVPKLLIYSVSTLASGVPSRFSGSGSGTDFTLTISSLQPEDVATYYCQGYYNDGIWAFGQGTKVEIK | 1.73 | 9.23 | 0.000759 | 82100 | 0.55 | 0.77 | 0.0515
A048-H4L4 (antibody, V domains shown) VH: EVQLLESGGGLVQPGGSLRLSCAASGFSFSSSYYMCWVRQAPGKGLEWIACIYTSSGSAYYADSVKGRFTISRTSSTTVTLQMNSLRAEDTAVYYCVRNAVGSSYYLYLWGQGTLVTVSS VL: AQVLTQSPSSLSASVGDRVTITCQASQSVAGNNYLSWYQQKPGKVPKLLIYSVSTLASGVPSRFSGSGSGTDFTLTISSLQPEDVATYYCQGYYNDGIWAFGQGTKVEIK | 3.05 | 9.6 | 0.000549 | 57000 | 2.36 | 1.32 | 0.114
A048 parental (antibody, V domains shown, also called A048 rabbit parental antibody; A048 parental anti-B5 hIgG1) VH: QEQLEESGGGLVKPEGSLTLTCTASGFSFSSSYYMCWVRQAPGRGLEWIACIYTSSGSAYYANWAKGRFTISRTSSTTVTLQMTRLTAADTATYFCVRNAVGSSYYLYLWGPGTLVTVSS VL: AQVLTQTPSPVSAAVGGTVTISCQASQSVAGNNYLSWYQQKPGQPPNLLIYSVSTLASGVPSRFKGSGSGTQFTLTISDLECDDAATYYCQGYYNDGIWAFGGGTEVVVK | 3.51 | 9.51 | 0.000601 | 62400 | 3.98 | 1.08 | 0.116
